In patent US20140038895A1 (UNIVERSITY OF QUEENSLAND, published 2014):
Where no end group is shown, it is not given here.

T1: human RXFP3 (human, UniProt Q9NSD7 1-469)
T1 construct: whole, on cells; also called GPCR135; RXFP3 receptor
T1 sequence (looked up): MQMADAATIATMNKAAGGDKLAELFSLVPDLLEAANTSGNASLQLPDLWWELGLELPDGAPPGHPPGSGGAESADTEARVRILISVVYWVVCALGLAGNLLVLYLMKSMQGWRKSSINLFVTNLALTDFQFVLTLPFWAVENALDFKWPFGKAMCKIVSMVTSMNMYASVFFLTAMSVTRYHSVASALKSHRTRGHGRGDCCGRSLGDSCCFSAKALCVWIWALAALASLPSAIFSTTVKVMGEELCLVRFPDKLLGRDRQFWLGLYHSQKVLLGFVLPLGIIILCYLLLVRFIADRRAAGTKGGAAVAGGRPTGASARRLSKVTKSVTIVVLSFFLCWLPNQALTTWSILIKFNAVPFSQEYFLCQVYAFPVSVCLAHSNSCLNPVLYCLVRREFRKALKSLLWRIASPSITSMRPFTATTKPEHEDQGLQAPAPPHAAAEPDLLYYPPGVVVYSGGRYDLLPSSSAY

T2: human RXFP1 (human, UniProt Q9HBX9 1-757)
T2 construct: whole, on cells; also called LGR7; RXFP1 receptor
T2 sequence (looked up): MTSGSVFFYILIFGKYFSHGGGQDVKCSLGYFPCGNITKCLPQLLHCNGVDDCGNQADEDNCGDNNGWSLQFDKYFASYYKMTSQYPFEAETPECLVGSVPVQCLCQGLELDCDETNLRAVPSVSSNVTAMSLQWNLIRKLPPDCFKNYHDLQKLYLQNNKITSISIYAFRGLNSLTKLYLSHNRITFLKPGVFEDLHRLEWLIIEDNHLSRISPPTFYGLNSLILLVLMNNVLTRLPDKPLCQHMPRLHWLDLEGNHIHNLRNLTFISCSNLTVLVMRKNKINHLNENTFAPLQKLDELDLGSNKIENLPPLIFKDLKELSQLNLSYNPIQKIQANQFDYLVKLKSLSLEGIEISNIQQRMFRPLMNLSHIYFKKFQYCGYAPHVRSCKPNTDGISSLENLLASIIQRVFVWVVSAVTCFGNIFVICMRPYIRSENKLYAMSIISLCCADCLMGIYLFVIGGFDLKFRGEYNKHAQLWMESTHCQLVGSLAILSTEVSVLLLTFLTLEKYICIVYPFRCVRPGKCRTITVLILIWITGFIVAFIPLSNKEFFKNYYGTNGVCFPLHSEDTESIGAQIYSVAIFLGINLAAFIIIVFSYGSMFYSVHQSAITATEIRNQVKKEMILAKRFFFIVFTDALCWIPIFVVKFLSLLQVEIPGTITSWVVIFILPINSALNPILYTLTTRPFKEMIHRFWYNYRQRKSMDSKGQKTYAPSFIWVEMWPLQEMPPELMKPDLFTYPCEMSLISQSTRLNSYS


The binders below were run against T1, human RXFP3 (assay: competition binding vs Eu-DTPA-R3/I5 on HEK-293T cells stably expressing human RXFP3, time-resolved fluorescence, n = 3).
Protocol: (§1) Binding assays were carried out as follows. […] The cells were incubated at room temperature for 60 min before the peptide solution was aspirated off and the cells washed with PBS.

| pIC50 | Binder |
| --- | --- |
| 5.6 | RAAPYGVRLSGREFIRAVIFTSGGSRW-OH (Synthetic single chain peptide; also called H3 relaxin B chain; native H3 B chain) [H3 B-chain C10/22S] |
| 6.71 | APYGVRLSGREFIRAVIFTSR-NH2 (Synthetic single chain peptide) [H3 B3-22R] |
| 6.66 | PYGVRLSGREFIRAVIFTSR-NH2 (Synthetic single chain peptide) [H3 B4-22R] |
| 6.33 | GVRLSGREFIRAVIFTSR-NH2 (Synthetic single chain peptide) [H3 B6-22R] |
| 6.46 | RAAPYGVRLSGREFIRAVIFTSR-OH (Synthetic single chain peptide) [H3 B1-22R Acid] |
| 7.75 | RAAPYGVRLSGREFIRAVIFTSR-NH2 (Synthetic single chain peptide; also called R3 B1-22R; R3 1-22R) [H3 B1-22R] |
| 6.83 | RAAPYGVRLAGREFIRAVIFTAR-NH2 (Synthetic single chain peptide) [H3 B1-22R C10/22A] |
| 7.06 | AAPYGVRLSGREFIRAVIFTSR-NH2 (Synthetic single chain peptide) [H3 B2-22R] |
| 6.37 | YGVRLSGREFIRAVIFTSR-NH2 (Synthetic single chain peptide) [H3 B5-22R] |

What follows are binders tested against T1, human RXFP3 (assay: competition binding vs Eu-DTPA-R3/I5 on HEK-293T cells expressing human RXFP3 (Table 2 cell: 'No activity')).
Protocol: as §1

| binding result | Binder |
| --- | --- |
| no binding | VRLSGREFIRAVIFTSR-NH2 (Synthetic single chain peptide) [H3 B7-22R] |
| no binding | RAAPYGVRLSGREFIRAVIFTS-NH2 (Synthetic single chain peptide) [H3 B1-22] |

These binders were tested against T2, human RXFP1 (assay: competition binding vs Eu-DTPA-H2 relaxin on HEK-293T cells transfected with RXFP1 (FIG. 7)).
Protocol: as §1

| binding result | Binder |
| --- | --- |
| binds | RAAPYGVRLSGREFIRAVIFTSR-NH2 (Synthetic single chain peptide; also called R3 B1-22R; R3 1-22R) [H3 B1-22R] |
